Measured values reported in the RNAGym collection of RNA variant scans (doi:10.1073/pnas.2313332121).
This sample holds only a part of the variants without activity.

B1: TPR 5TU (parent)
chain: GGAUCUUCUCGAUCUAACAAAAAAGACAAAUCUGCCACAAAGCUUGAGAGCAUCUUCGGAUGCAGAGGCGGCAGCCUUCGGUGGCGCGAUAGCGCCAACGUUCUCAACUAUGACACGCAAAACGCGUGCUCCGUUGAAUGGAGUUUAUCAUG

Variants of: B1
Assay: polymerase ribozyme fitness, log enrichment relative to wild type (log ratio); higher = more active; in vitro selection for triplet polymerase activity
Outline: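 Mutant libraries of each subunit of a heterodimeric triplet polymerase ribozyme were built by PCR and transcribed. Each library went through one round of in vitro selection in triplicate: annealing with biotinylated primer, partner subunit and triplets, frozen incubation at −7 °C, gel excision of extended constructs, streptavidin-bead capture and RT-PCR. Input and output libraries were Illumina-sequenced; only genotypes with ≥10 input reads and ≥1 read per output were kept. Fitness is log2(genotype enrichment/wild-type enrichment), using inverse-variance-weighted replicate averages.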

Variant | polymerase ribozyme fitness (log ratio)
G48C C54A C108G C114U C125U U134A C149G | ≤ -4.2
G48A G50A C54A C93G U104A | ≤ -4.2
A47U C85U | -0.698
G48C G70A G88U C96G | ≤ -4.2
A49C U53A A106G | ≤ -4.2
G48C A49C A122U | -3.93
A49C A119U | ≤ -4.2
G48U C75G G92U | ≤ -4.2
G48C C76U | -3.15
A49C G50C G67C C72G G84A C108A A142G A147U | ≤ -4.2
G48C A91G C105U A147G | ≤ -4.2
G48A G62A C96A C132G U134G A147C | ≤ -4.2
A49G A73G | -0.67
G48A G83U A98G G140C | ≤ -4.2
A49C C69G C85A A120C C125U | ≤ -4.2
A49C G59U U77C G81C U109G G141C | ≤ -4.2
A49C C96A | -3.04
A49C G71C U101G A137U A150U | ≤ -4.2
A49C U53A G86U A115G | ≤ -4.2
G48C A49G U55G A66U C85U A97C G126C | ≤ -4.2
G48U C57G C93U G136A U146G | -2.43

Variant | polymerase ribozyme fitness (log ratio)
A49C G68C C85G A115G A119G G141U A147C | ≤ -4.2
A49C A52C C57A A91U C96G G112A G117U G143C A150G | ≤ -4.2
G48U U53A C85U | -1.94
A47U U56A G94A C118U A121U | -0.95
G48A A52G G83U U101A C131A U148A | ≤ -4.2
G48U A98G | -0.0311
G48U C116U | -0.65
G48U C85A U127C | -2.74
G48C G94A | -0.224
A49C A73G A91G C108U A119C C125A | ≤ -4.2
G48C A49C A60G U61A A66G C87A | ≤ -4.2
A47U G48A U146G | -2.73
A49C A91U C95A A107U | ≤ -4.2
A49C C85U | -3.49
G48C A60G C76G G94C U104C C131U | ≤ -4.2
G48U C93G | -3.47
A47U U55A G141U | -1.14
G48U G126U | -0.307
G48C C54U G58C C87U C123U | -1.05
A47U U61A C75A C76U G88U | ≤ -4.2
G48C G94U C103U G140A | ≤ -4.2

Variant | polymerase ribozyme fitness (log ratio)
G48U G92U A121C A150C | ≤ -4.2
G48A G84A A107C C118G | ≤ -4.2
G48C A113C U148C | ≤ -4.2
A47U G50C A121U | -3.92
G48C C93G | -3.04
G48C C96A U111A A138C | ≤ -4.2
A47U G62C G84U | -3.86
A47U G48C G71C G94A C108G G124C G141A | ≤ -4.2
A47U G84C C93U | ≤ -4.2
A49C A97G U148C | ≤ -4.2
G48A A113G A147G G152C | ≤ -4.2
A47U U77C C85A C93G A107U | ≤ -4.2
A49C C75A G81C C93G A106C U109A G136A | ≤ -4.2
G48A C75U C87A C93G | ≤ -4.2
G48A C87U A91U C93U | ≤ -4.2
G48U G59C G81A A97U | -1.88
A49C C79G G94C | ≤ -4.2
A49C G67A G92U A138C | ≤ -4.2
A49C A52C U56C C87G C95U A98G A107C A119G | -4.17
G48A C57A U144G | 0.472
G48A C85G A98U C99U | -3.36

Variant | polymerase ribozyme fitness (log ratio)
A49C C69A C79U G83U G94U U104A | ≤ -4.2
A49C C79U C85U C132A U134A | ≤ -4.2
A49C G86A C129A C132U U148A G152U | ≤ -4.2
G48C G50U G92C U145G | -4.11
A49C G70A C75G C93G A97C C116G C118G | ≤ -4.2
A49C U77G G94C | ≤ -4.2
A47U G50C | -3.22
G48A G59C | -0.874
G48A G59A | -0.452
G48C A98G U101C U144A A147U | -0.0628
A49C A52U A138U | ≤ -4.2
A47U G126C | -0.0812
G48A C57A G92A | -3.32
A49C U101G G141U | -1.78
A49C G58C A66G C93G A107U A120U | ≤ -4.2
A47U A52U C93A C125G U135C | ≤ -4.2
G48C C87G G88C A91G A119U U134G | ≤ -4.2
G48C G92U | -1.69
A49G A97G | -1.11
A49C G68C G94U A97U C114G G126A U127G | ≤ -4.2
G48A G59C C63U G86C | -3.98
